Columns and labels:
AncSZ = experiment: phosphorylation enrichment, bacterial display (enrichment ratio); higher = better substrate or ligand; peptides without Tyr show the background
EPHB1 = EPHB1 (UniProt P54762); experiment: as above
EPHB2 = EPHB2 (UniProt P29323); experiment: as above
FGFR1 = FGFR1 (UniProt P11362); experiment: as above
FGFR3 = FGFR3 (UniProt P22607); experiment: as above
Fer (mouse) = experiment: as above
Fes = Fes (UniProt P07332); experiment: as above
Fyn = Fyn (UniProt P06241); experiment: as above
Hck = Hck (UniProt P08631); experiment: as above
Jak2 = Jak2 (UniProt O60674); experiment: as above
MERTK = MERTK (UniProt Q12866); experiment: as above
c-Abl (mouse) = experiment: as above
c-Src = experiment: as above
Grb2 SH2 = Grb2 SH2 (UniProt P62993); experiment: SH2 binding enrichment of the phosphorylated peptide, bacterial display (enrichment ratio); higher = better substrate or ligand; peptides without Tyr show the background
SHP2-C SH2 = experiment: as above
c-Src SH2 = experiment: as above
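Throughout, for SH2 binding enrichment of the phosphorylated peptide, bacterial display: peptide library displayed on the E. coli surface as eCPX fusions, selected cells deep-sequenced, score is each peptide's frequency after selection divided by its frequency in the input.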
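Throughout, for phosphorylation enrichment, bacterial display: 11-residue human phosphosite peptides and single-mutation variants displayed on the E. coli surface, counted by deep sequencing, each peptide's frequency after selection divided by its frequency in the unselected input library; frequency after pTyr selection over input frequency; kinase dosed for 20-30% of maximal phosphorylation in three min.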

Chain of Fes (P07332 whole entry, looked up): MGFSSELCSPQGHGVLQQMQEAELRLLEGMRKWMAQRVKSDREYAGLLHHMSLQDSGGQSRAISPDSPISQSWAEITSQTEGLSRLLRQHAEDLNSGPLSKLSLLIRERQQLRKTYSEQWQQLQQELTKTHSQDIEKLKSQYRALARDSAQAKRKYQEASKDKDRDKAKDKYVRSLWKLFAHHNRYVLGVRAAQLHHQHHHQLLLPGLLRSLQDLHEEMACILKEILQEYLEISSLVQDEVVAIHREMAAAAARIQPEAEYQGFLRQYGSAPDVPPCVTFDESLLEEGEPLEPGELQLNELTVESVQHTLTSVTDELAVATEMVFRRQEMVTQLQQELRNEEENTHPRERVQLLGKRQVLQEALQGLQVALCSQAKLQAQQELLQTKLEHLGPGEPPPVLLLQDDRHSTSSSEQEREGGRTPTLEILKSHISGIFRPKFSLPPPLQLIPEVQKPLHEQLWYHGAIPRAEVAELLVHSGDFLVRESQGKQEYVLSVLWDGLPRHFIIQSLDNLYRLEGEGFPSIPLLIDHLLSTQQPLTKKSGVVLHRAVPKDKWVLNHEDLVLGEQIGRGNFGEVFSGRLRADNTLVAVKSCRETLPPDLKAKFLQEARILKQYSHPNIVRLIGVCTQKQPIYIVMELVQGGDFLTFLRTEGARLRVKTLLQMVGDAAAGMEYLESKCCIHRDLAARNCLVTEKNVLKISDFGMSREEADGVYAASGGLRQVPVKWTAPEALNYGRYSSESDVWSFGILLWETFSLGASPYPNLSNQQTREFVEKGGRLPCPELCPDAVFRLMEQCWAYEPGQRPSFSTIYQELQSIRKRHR
Chain of Grb2 SH2 (P62993 whole entry, looked up): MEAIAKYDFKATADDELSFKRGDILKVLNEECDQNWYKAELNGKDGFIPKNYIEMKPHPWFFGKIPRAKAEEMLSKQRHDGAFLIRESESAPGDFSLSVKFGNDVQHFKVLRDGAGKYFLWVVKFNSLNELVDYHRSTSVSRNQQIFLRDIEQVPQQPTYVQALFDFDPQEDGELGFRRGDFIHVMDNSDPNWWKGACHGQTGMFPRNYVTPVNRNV
Chain of EPHB2 (P29323 whole entry, looked up): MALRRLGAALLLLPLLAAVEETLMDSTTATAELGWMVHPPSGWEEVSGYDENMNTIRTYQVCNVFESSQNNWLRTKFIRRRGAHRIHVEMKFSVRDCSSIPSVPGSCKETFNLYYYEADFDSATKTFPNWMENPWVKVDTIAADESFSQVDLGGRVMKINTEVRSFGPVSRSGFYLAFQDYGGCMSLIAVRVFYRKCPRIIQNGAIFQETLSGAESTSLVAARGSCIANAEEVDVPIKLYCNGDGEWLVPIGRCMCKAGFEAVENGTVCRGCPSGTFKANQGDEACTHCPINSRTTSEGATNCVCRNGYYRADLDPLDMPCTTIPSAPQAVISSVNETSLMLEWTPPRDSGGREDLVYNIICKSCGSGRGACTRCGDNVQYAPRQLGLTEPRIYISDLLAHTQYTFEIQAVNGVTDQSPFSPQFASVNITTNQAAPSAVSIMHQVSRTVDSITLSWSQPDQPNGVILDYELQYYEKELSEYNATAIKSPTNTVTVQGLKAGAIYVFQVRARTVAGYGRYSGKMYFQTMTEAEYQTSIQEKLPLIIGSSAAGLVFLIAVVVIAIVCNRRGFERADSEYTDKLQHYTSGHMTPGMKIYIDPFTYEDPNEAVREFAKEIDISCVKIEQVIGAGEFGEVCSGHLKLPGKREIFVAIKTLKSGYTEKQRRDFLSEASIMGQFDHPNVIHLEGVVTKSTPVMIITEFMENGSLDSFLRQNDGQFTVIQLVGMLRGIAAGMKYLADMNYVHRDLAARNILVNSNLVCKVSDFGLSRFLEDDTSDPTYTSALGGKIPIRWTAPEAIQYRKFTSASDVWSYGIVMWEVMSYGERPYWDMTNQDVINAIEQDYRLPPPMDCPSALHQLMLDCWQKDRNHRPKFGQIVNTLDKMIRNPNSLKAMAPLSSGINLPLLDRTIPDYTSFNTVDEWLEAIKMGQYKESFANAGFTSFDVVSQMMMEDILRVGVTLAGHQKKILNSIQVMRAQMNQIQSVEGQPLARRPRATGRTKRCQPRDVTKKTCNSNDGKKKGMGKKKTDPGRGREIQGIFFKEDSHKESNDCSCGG
Chain of Hck (P08631 whole entry, looked up): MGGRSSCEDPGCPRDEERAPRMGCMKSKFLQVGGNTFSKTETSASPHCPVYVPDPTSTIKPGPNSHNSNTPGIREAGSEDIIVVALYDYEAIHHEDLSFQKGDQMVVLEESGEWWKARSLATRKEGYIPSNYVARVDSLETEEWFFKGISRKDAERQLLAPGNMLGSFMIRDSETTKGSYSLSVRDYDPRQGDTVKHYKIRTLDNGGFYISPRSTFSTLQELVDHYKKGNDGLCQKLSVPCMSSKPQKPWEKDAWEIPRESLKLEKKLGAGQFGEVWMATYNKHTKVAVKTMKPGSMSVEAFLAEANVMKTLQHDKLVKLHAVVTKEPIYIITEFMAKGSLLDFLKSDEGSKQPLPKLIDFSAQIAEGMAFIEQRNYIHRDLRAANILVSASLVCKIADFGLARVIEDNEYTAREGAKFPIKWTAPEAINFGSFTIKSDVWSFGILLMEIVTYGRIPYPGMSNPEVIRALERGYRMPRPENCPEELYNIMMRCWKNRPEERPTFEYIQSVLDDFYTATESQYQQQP
Chain of FGFR3 (P22607 whole entry, looked up): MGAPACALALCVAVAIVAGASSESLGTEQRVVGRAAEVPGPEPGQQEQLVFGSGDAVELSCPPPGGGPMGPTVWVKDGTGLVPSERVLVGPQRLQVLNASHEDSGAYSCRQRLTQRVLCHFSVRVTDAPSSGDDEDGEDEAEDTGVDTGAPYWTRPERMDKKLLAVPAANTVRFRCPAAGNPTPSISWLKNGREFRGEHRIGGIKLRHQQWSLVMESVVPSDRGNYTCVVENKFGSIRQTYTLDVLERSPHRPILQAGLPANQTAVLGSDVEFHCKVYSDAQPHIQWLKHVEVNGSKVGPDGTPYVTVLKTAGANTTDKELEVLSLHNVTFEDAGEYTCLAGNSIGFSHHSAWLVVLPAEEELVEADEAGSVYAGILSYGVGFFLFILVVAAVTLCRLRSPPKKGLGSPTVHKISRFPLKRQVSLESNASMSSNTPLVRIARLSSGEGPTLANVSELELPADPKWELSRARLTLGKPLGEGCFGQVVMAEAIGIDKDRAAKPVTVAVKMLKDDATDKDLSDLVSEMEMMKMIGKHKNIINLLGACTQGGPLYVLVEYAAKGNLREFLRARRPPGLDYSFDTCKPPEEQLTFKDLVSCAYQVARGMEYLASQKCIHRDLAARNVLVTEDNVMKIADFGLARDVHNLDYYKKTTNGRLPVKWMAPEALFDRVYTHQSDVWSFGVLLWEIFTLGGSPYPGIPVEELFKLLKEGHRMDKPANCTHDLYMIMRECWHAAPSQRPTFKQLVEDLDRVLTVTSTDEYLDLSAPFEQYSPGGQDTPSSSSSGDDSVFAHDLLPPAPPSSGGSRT
Chain of EPHB1 (P54762 whole entry, looked up): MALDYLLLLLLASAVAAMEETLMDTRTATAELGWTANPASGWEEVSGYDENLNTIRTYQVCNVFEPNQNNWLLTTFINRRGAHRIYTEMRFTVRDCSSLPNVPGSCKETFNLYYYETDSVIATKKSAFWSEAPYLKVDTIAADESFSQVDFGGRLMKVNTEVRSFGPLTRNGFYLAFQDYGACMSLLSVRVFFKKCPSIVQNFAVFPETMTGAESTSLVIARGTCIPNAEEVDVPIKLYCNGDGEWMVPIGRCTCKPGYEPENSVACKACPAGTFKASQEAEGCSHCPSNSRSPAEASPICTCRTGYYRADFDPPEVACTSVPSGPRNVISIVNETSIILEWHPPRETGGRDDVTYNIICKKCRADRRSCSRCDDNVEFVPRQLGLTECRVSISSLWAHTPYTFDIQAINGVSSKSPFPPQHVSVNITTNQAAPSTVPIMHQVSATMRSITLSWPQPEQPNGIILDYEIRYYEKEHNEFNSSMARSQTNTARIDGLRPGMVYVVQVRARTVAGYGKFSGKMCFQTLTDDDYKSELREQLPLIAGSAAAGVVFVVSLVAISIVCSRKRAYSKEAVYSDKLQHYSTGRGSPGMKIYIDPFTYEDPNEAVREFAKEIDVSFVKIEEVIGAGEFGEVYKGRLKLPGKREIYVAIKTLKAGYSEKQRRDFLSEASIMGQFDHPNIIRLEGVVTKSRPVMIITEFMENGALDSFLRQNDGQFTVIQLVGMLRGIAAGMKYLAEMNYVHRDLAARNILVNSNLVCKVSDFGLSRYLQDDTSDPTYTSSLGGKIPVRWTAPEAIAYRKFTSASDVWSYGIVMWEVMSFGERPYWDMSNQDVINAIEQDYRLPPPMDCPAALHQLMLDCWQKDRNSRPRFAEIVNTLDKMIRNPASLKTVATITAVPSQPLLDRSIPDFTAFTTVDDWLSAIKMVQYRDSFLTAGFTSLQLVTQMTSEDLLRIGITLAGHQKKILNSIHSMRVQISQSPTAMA
Chain of Fyn (P06241 whole entry, looked up): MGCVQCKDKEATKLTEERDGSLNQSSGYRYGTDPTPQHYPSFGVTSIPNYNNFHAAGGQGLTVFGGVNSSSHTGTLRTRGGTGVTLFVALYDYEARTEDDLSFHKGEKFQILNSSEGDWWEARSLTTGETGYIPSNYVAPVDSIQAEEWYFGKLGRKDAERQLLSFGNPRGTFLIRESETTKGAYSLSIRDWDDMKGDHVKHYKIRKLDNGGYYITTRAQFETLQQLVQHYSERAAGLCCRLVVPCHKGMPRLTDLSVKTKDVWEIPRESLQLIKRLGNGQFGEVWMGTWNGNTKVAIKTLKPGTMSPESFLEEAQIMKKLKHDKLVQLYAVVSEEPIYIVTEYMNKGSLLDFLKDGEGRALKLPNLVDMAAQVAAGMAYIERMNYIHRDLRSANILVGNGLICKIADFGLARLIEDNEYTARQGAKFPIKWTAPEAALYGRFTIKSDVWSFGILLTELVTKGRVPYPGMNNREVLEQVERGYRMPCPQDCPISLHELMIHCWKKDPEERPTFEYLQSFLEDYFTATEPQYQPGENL

| Sequence | phosphorylation enrichment (AncSZ) | phosphorylation enrichment (EPHB1) | phosphorylation enrichment (EPHB2) | phosphorylation enrichment (FGFR1) | phosphorylation enrichment (FGFR3) | phosphorylation enrichment (Fer (mouse)) | phosphorylation enrichment (Fes) | phosphorylation enrichment (Fyn) | phosphorylation enrichment (Hck) | phosphorylation enrichment (Jak2) | phosphorylation enrichment (MERTK) | phosphorylation enrichment (c-Abl (mouse)) | phosphorylation enrichment (c-Src) | SH2 binding enrichment (Grb2 SH2) | SH2 binding enrichment (SHP2-C SH2) | SH2 binding enrichment (c-Src SH2) |
| --- | --- | --- | --- | --- | --- | --- | --- | --- | --- | --- | --- | --- | --- | --- | --- | --- |
| VSRGRYRPQEC [B4GALT4_Y113] | 0.754 | 0.527 | 0.476 | 0.475 | 0.515 | 0.542 | 0.643 | 0.574 | 0.49 | 0.655 | 0.575 | 0.545 | 0.657 | 0.62 | 0.409 | 0.43 |
| TEDAEYDVQSK [PTCHD3_Y335_P333A] | 1.38 | 0.611 | 0.609 | 0.515 | 0.689 | 0.606 | 1.14 | 0.539 | 0.591 | 1.07 | 0.492 | 0.848 | 0.535 | 1.01 | 0.698 | 0.644 |
| NGQAVYAACQT [XDH_Y1092] | 0.545 | 2.24 | 2.2 | 0.506 | 0.371 | 2.4 | 0.706 | 4.76 | 4.26 | 0.378 | 1.64 | 3.5 | 3.51 | 0.685 | 0.618 | 0.427 |
| ECKETYHEGEC [PRKN_Y372_A371T] | 1.47 | 0.608 | 0.728 | 0.721 | 0.808 | 0.696 | 1.62 | 0.649 | 0.694 | 1.62 | 0.629 | 1.03 | 0.645 | 0.884 | 0.75 | 0.889 |
| TEALYYTDDTA [ADPRS_Y75] | 1.46 | 1.31 | 0.78 | 3.91 | 4.22 | 1.97 | 2.09 | 2.63 | 1.82 | 0.833 | 4.21 | 0.633 | 1.9 | 0.912 | 0.847 | 0.856 |
| RREWFYEVIIV [BACE1_Y260_YF] | 1.53 | 0.928 | 0.372 | 0.605 | 0.505 | 1.89 | 4.8 | 0.649 | 0.561 | 0.882 | 2.28 | 0.766 | 0.515 | 0.927 | 0.741 | 0.526 |
| KLQQWYREPRS [GPI_Y17_H20P] | 0.85 | 0.44 | 0.712 | 0.36 | 0.491 | 0.385 | 0.708 | 0.446 | 0.493 | 0.562 | 0.463 | 0.615 | 0.507 | 0.999 | 0.799 | 0.5 |
| DLITAYRAHGF [PDHA1_Y118_H113D] | 0.543 | 0.409 | 0.428 | 0.525 | 0.54 | 0.387 | 0.756 | 0.401 | 0.49 | 0.563 | 0.355 | 0.535 | 0.373 | 0.81 | 0.936 | 0.48 |
| EEAAGCAQESQ [CAMKV_Y491_Y491C] | 1.15 | 0.645 | 0.591 | 0.527 | 0.833 | 0.657 | 1.23 | 0.491 | 0.575 | 1.06 | 0.625 | 1.18 | 0.491 | 0.974 | 0.837 | 0.79 |
| LANNEYYFQVC | 3.4 | 1.63 | 1.56 | 15.7 | 12.9 | 1.11 | 1.69 | 1.43 | 1.19 | 2.34 | 2.08 | 1.02 | 1.94 | 0.93 | 0.576 | 0.431 |
| TDDMRYPMKSE [TGDS_Y302_N298D] | 0.77 | 0.378 | 0.527 | 0.529 | 0.621 | 0.518 | 0.863 | 0.43 | 0.42 | 0.694 | 0.488 | 0.651 | 0.455 | 0.827 | 0.626 | 0.439 |
| HGVSSYDTVIS [LDLR_Y465] | 1.19 | 0.515 | 0.865 | 0.801 | 0.706 | 0.638 | 1.15 | 0.818 | 0.846 | 0.911 | 0.811 | 0.779 | 0.441 | 0.936 | 0.795 | 6.43 |
| FGEFRYRSVIK [CFTR_Y517_D513G_YF] | 0.728 | 0.558 | 0.559 | 0.44 | 0.541 | 0.396 | 0.891 | 0.409 | 0.565 | 0.744 | 0.409 | 0.574 | 0.426 | 0.567 | 0.426 | 0.423 |
| ERRLIYASDPK [VPS13D_Y864_T865A] | 0.634 | 0.443 | 0.391 | 0.46 | 0.479 | 0.395 | 0.678 | 0.418 | 0.473 | 0.506 | 0.45 | 0.545 | 0.475 | 0.837 | 0.589 | 0.625 |
| RIGRKYKRVRF [F8_Y442_K444R] | 2.77 | 0.967 | 1.65 | 1.13 | 1.55 | 1.45 | 3.31 | 1.35 | 1.23 | 2.55 | 2.74 | 2.59 | 3.73 | 0.554 | 0.533 | 0.302 |
| SVVVTYEPPEV [TP53_Y220_P219T] | 1.57 | 1.06 | 1.61 | 0.493 | 0.708 | 0.752 | 1.32 | 0.516 | 0.697 | 0.969 | 0.779 | 0.961 | 0.623 | 0.722 | 0.761 | 0.729 |
